System: Escherichia coli TOP10
Assay: shrunken log2 fold change of peptide-encoding DNA abundance (4.5 h post-induction vs induction); higher = less antimicrobial activity (less host growth inhibition)
Settings: time post-induction: 4.5 h; library: site-saturation at positions 5, 18, 19, 20
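Note: peptides expressed intracellularly from a pBAD plasmid library in pooled LB shake-flask culture, induced with 0.3% L-arabinose, DNA abundance read by NGS, three biological replicates, DESeq2 with apeglm shrinkage.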

Row | Sequence | shrunken log2 fold change
1 | RRIRCRPPRLPRPRPRPAESPRP | 0.0971
2 | RRIRCRPPRLPRPRPRPAFKPRP | 0.132
3 | RRIRCRPPRLPRPRPRPAFLPRP | -0.214
4 | RRIRCRPPRLPRPRPRPAFMPRP | 0.117
5 | RRIRCRPPRLPRPRPRPAGAPRP | 0.417
6 | RRIRCRPPRLPRPRPRPAGEPRP | 0.598
7 | RRIRCRPPRLPRPRPRPAGHPRP | 0.0641
8 | RRIRCRPPRLPRPRPRPAHMPRP | -0.249
9 | RRIRCRPPRLPRPRPRPAIHPRP | -0.248
10 | RRIRCRPPRLPRPRPRPAKGPRP | -0.179
11 | RRIRCRPPRLPRPRPRPAKIPRP | -0.361
12 | RRIRCRPPRLPRPRPRPAKTPRP | -0.0664
13 | RRIRCRPPRLPRPRPRPAMDPRP | -0.207
14 | RRIRCRPPRLPRPRPRPAMTPRP | -0.0039
15 | RRIRCRPPRLPRPRPRPAQWPRP | 0.696
16 | RRIRCRPPRLPRPRPRPARKPRP | 0.21
17 | RRIRCRPPRLPRPRPRPAYIPRP | -0.628
18 | RRIRCRPPRLPRPRPRPCAHPRP | 0.0631
19 | RRIRCRPPRLPRPRPRPCAYPRP | -0.153
20 | RRIRCRPPRLPRPRPRPCCQPRP | -0.342
21 | RRIRCRPPRLPRPRPRPCCVPRP | -0.409
22 | RRIRCRPPRLPRPRPRPCCWPRP | 0.103
23 | RRIRCRPPRLPRPRPRPCEHPRP | -0.328
24 | RRIRCRPPRLPRPRPRPCEMPRP | -0.151
25 | RRIRCRPPRLPRPRPRPCEQPRP | -0.222

Row | Sequence | shrunken log2 fold change
26 | RRIRCRPPRLPRPRPRPCGLPRP | 0.0617
27 | RRIRCRPPRLPRPRPRPCHIPRP | -0.0941
28 | RRIRCRPPRLPRPRPRPCIAPRP | -0.11
29 | RRIRCRPPRLPRPRPRPCIHPRP | -0.415
30 | RRIRCRPPRLPRPRPRPCITPRP | -0.0767
31 | RRIRCRPPRLPRPRPRPCKVPRP | -0.147
32 | RRIRCRPPRLPRPRPRPCLWPRP | 0.238
33 | RRIRCRPPRLPRPRPRPCMLPRP | -0.758
34 | RRIRCRPPRLPRPRPRPCMSPRP | -0.185
35 | RRIRCRPPRLPRPRPRPCRAPRP | -0.0671
36 | RRIRCRPPRLPRPRPRPCRGPRP | -0.243
37 | RRIRCRPPRLPRPRPRPCSEPRP | -0.495
38 | RRIRCRPPRLPRPRPRPCSKPRP | -0.0735
39 | RRIRCRPPRLPRPRPRPCVDPRP | -0.164
40 | RRIRCRPPRLPRPRPRPCVGPRP | -0.0691
41 | RRIRCRPPRLPRPRPRPCVLPRP | -0.7
42 | RRIRCRPPRLPRPRPRPCYGPRP | -0.28
43 | RRIRCRPPRLPRPRPRPCYVPRP | -1.08
44 | RRIRCRPPRLPRPRPRPDCPPRP | -0.343
45 | RRIRCRPPRLPRPRPRPDCQPRP | -0.0895
46 | RRIRCRPPRLPRPRPRPDDEPRP | 0.33
47 | RRIRCRPPRLPRPRPRPDDIPRP | 0.0301
48 | RRIRCRPPRLPRPRPRPDEMPRP | -0.0197
49 | RRIRCRPPRLPRPRPRPDGSPRP | -0.133
50 | RRIRCRPPRLPRPRPRPDKLPRP | 0.0152

Row | Sequence | shrunken log2 fold change
51 | RRIRCRPPRLPRPRPRPDKMPRP | -0.156
52 | RRIRCRPPRLPRPRPRPDKQPRP | -0.0405
53 | RRIRCRPPRLPRPRPRPDKVPRP | -0.224
54 | RRIRCRPPRLPRPRPRPDLKPRP | -0.257
55 | RRIRCRPPRLPRPRPRPDLWPRP | 0.134
56 | RRIRCRPPRLPRPRPRPDNVPRP | -0.0772
57 | RRIRCRPPRLPRPRPRPDTEPRP | -0.0455
58 | RRIRCRPPRLPRPRPRPDVAPRP | 0.298
59 | RRIRCRPPRLPRPRPRPDVPPRP | -0.0242
60 | RRIRCRPPRLPRPRPRPDWQPRP | -0.0213
61 | RRIRCRPPRLPRPRPRPDWTPRP | -0.268
62 | RRIRCRPPRLPRPRPRPDYDPRP | 0.0933
63 | RRIRCRPPRLPRPRPRPEAGPRP | 0.4
64 | RRIRCRPPRLPRPRPRPEAYPRP | -0.0117
65 | RRIRCRPPRLPRPRPRPEDWPRP | 0.595
66 | RRIRCRPPRLPRPRPRPEFFPRP | -0.127
67 | RRIRCRPPRLPRPRPRPEFNPRP | -0.0266
68 | RRIRCRPPRLPRPRPRPEFRPRP | -0.0284
69 | RRIRCRPPRLPRPRPRPEGFPRP | 0.0977
70 | RRIRCRPPRLPRPRPRPEHLPRP | -0.0545
71 | RRIRCRPPRLPRPRPRPEIFPRP | -0.422
72 | RRIRCRPPRLPRPRPRPEIYPRP | -0.0456
73 | RRIRCRPPRLPRPRPRPEKVPRP | 0.0187
74 | RRIRCRPPRLPRPRPRPEKYPRP | -0.209
75 | RRIRCRPPRLPRPRPRPELKPRP | 0.0478

Row | Sequence | shrunken log2 fold change
76 | RRIRCRPPRLPRPRPRPEMWPRP | 0.166
77 | RRIRCRPPRLPRPRPRPENKPRP | -0.415
78 | RRIRCRPPRLPRPRPRPENLPRP | -0.0208
79 | RRIRCRPPRLPRPRPRPENWPRP | 0.145
80 | RRIRCRPPRLPRPRPRPEPWPRP | 0.634
81 | RRIRCRPPRLPRPRPRPEQSPRP | 0.67
82 | RRIRCRPPRLPRPRPRPEQTPRP | 0.0662
83 | RRIRCRPPRLPRPRPRPERKPRP | 0.086
84 | RRIRCRPPRLPRPRPRPETEPRP | -0.0921
85 | RRIRCRPPRLPRPRPRPETLPRP | -0.193
86 | RRIRCRPPRLPRPRPRPEVKPRP | 0.149
87 | RRIRCRPPRLPRPRPRPEWAPRP | 0.292
88 | RRIRCRPPRLPRPRPRPEWCPRP | 0.145
89 | RRIRCRPPRLPRPRPRPEYKPRP | -0.415
90 | RRIRCRPPRLPRPRPRPFCMPRP | 0.174
91 | RRIRCRPPRLPRPRPRPFDKPRP | -0.493
92 | RRIRCRPPRLPRPRPRPFDQPRP | -0.136
93 | RRIRCRPPRLPRPRPRPFEPPRP | -0.0564
94 | RRIRCRPPRLPRPRPRPFEYPRP | -0.548
95 | RRIRCRPPRLPRPRPRPFFWPRP | 0.359
96 | RRIRCRPPRLPRPRPRPFGEPRP | -0.282
97 | RRIRCRPPRLPRPRPRPFGLPRP | -0.0423
98 | RRIRCRPPRLPRPRPRPFGNPRP | -0.365
99 | RRIRCRPPRLPRPRPRPFGYPRP | -0.174
100 | RRIRCRPPRLPRPRPRPFHHPRP | -0.00672

Row | Sequence | shrunken log2 fold change
101 | RRIRCRPPRLPRPRPRPFIFPRP | -0.425
102 | RRIRCRPPRLPRPRPRPFIPPRP | -0.976
103 | RRIRCRPPRLPRPRPRPFIVPRP | -0.575
104 | RRIRCRPPRLPRPRPRPFLRPRP | -0.0477
105 | RRIRCRPPRLPRPRPRPFLYPRP | -0.513
106 | RRIRCRPPRLPRPRPRPFMEPRP | -0.996
107 | RRIRCRPPRLPRPRPRPFPPPRP | 0.0149
108 | RRIRCRPPRLPRPRPRPFQMPRP | -0.423
109 | RRIRCRPPRLPRPRPRPFQQPRP | -0.00107
110 | RRIRCRPPRLPRPRPRPFQRPRP | -0.418
111 | RRIRCRPPRLPRPRPRPFREPRP | -0.386
112 | RRIRCRPPRLPRPRPRPFSDPRP | -0.165
113 | RRIRCRPPRLPRPRPRPFSGPRP | -0.275
114 | RRIRCRPPRLPRPRPRPFSMPRP | -0.107
115 | RRIRCRPPRLPRPRPRPFTEPRP | -0.28
116 | RRIRCRPPRLPRPRPRPFTGPRP | -0.0668
117 | RRIRCRPPRLPRPRPRPFTSPRP | -0.152
118 | RRIRCRPPRLPRPRPRPFVRPRP | -0.141
119 | RRIRCRPPRLPRPRPRPFYVPRP | -0.825
120 | RRIRCRPPRLPRPRPRPGADPRP | 0.484
121 | RRIRCRPPRLPRPRPRPGAMPRP | 0.319
122 | RRIRCRPPRLPRPRPRPGCEPRP | 0.159
123 | RRIRCRPPRLPRPRPRPGCNPRP | -0.425
124 | RRIRCRPPRLPRPRPRPGCTPRP | -0.279
125 | RRIRCRPPRLPRPRPRPGCWPRP | 0.569

Row | Sequence | shrunken log2 fold change
126 | RRIRCRPPRLPRPRPRPGDEPRP | 0.105
127 | RRIRCRPPRLPRPRPRPGDQPRP | 0.256
128 | RRIRCRPPRLPRPRPRPGEEPRP | 0.135
129 | RRIRCRPPRLPRPRPRPGEGPRP | -0.0346
130 | RRIRCRPPRLPRPRPRPGEWPRP | 0.393
131 | RRIRCRPPRLPRPRPRPGFFPRP | 0.0565
132 | RRIRCRPPRLPRPRPRPGGGPRP | 0.76
133 | RRIRCRPPRLPRPRPRPGHCPRP | -0.0435
134 | RRIRCRPPRLPRPRPRPGHEPRP | 0.00505
135 | RRIRCRPPRLPRPRPRPGILPRP | -0.233
136 | RRIRCRPPRLPRPRPRPGINPRP | -0.31
137 | RRIRCRPPRLPRPRPRPGLQPRP | 0.109
138 | RRIRCRPPRLPRPRPRPGNDPRP | 0.00582
139 | RRIRCRPPRLPRPRPRPGPWPRP | 0.422
140 | RRIRCRPPRLPRPRPRPGPYPRP | -0.385
141 | RRIRCRPPRLPRPRPRPGQRPRP | 0.0965
142 | RRIRCRPPRLPRPRPRPGRGPRP | 1.18
143 | RRIRCRPPRLPRPRPRPGRNPRP | -0.0027
144 | RRIRCRPPRLPRPRPRPGRTPRP | -0.106
145 | RRIRCRPPRLPRPRPRPGRWPRP | 0.434
146 | RRIRCRPPRLPRPRPRPGSNPRP | -0.915
147 | RRIRCRPPRLPRPRPRPGTVPRP | -0.339
148 | RRIRCRPPRLPRPRPRPGYCPRP | -0.0918
149 | RRIRCRPPRLPRPRPRPGYIPRP | -0.258
150 | RRIRCRPPRLPRPRPRPHAEPRP | 0.315
